Laboratory results reported in US20220127633A1.

Experiments:
[1] = target: TIR1 receptor protein with 6 His, maltose-binding protein (MBP) and FLAG affinity tags, expressed in insect cell culture using a recombinant baculovirus (UniProt Q570C0); assay: SPR; with IAA (auxin)
[2] = target: TIR1 receptor protein with 6 His, maltose-binding protein (MBP) and FLAG affinity tags, expressed in insect cell culture using a recombinant baculovirus (UniProt Q570C0); assay: SPR; with dicamba
[3] = target: TIR1 receptor protein with 6 His, maltose-binding protein (MBP) and FLAG affinity tags, expressed in insect cell culture using a recombinant baculovirus (UniProt Q570C0); assay: SPR; with 2,4-D

Substance | koff [1] | koff [2] | koff [3]
biotinylated Sisymbrium orientale IAA2 wild-type degron peptide | 2.08E-04 ? | 3.29E-02 ? | 1.93E-03 ?
biotinylated Sisymbrium orientale IAA2Δ27 degron peptide (9 amino acid deletion in the degron tail) | 5.01E-04 ? | 4.04E-02 ? | 2.71E-03 ?
